Assay results: patent US7829528B2, “Compositions and methods for treating STAT-6 associated diseases or conditions” (The Rockefeller University, priority 2004, dated 2010)
Where a SMILES comes first, the peptide text is derived from it. Where no end group is shown, it is not given here. [ ]: non-standard residue; d: D form. pY = N[C@@H](Cc1ccc(OP(=O)(O)O)cc1)C(=O)O

Key:
[1] = system: murine splenocytes; experiment: Uptake of FITC-conjugated PTD4 peptide by splenocytes (flow cytometry); assay type: cell-based; settings: for Percent Maximum (±SEM), peptide uptake: FITC-PTD4 100 μM, normalized to 100%
Description: The ability of the PTD4 protein transduction domain to enter cells was confirmed by incubating murine splenocytes with FITC-conjugated PTD4 peptide (FITC-PTD4). Splenocytes were incubated with FITC-PTD4 for various times (30 minutes to 24 hours), subsequently washed and incubated with trypsin to remove surface bound peptide, and analyzed by flow cytometry. Data was normalized to 100%. Half-maximal peptide uptake occurred at 1 hour and plateaued after 4-6 hours (Table 1).
To monitor peptide uptake, splenocytes in Dulbecco's Modified Eagle Medium (DMEM)/10% fetal bovine serum (FBS) were incubated continuously with FITC-conjugated PTD4 peptide (100 μM) for 30 minutes to 24 hours. At each time point, surface bound peptide was removed by washing cells twice with phosphate-buffered saline (PBS) and then incubating cells with trypsin for five minutes. Ten thousand cells were subsequently analyzed by flow cytometry. To monitor the half-life of intracellular peptide (in the absence of uptake), splenocytes in DMEM/10% FBS were incubated with FITC-conjugated PTD4 peptide (100 μM) for four hours, after which they were washed twice with PBS and incubated with trypsin for five minutes. Splenocytes were returned to DMEM/10% FBS and intracellular localization of peptide monitored over time by flow cytometry.

[2] = system: murine splenocytes; assay type: cell-based; settings: mouse
Description: (§1) To determine the half-life of the intracellular PTD4 peptide in the absence of further uptake, splenocytes were incubated with the FITC-PTD4 peptide for 4 hours, washed and trypsinized, and placed back into complete medium after which intracellular localization of the peptide was monitored over time by flow cytometry. […] To monitor stability of the murine-specific PTD4-STAT-6 peptide (STAT-6-IP; Tyr-Ala-Arg-Ala-Ala-Ala-Arg-Gln-Ala-Arg-Ala-Gly-Arg-Gly-Tyr*-Val-Ser-Thr-Thr; SEQ ID NO:7) in murine splenocytes, cells were incubated with the STAT-6-IP for four hours, after which they were washed and trypsinized. The presence of intracellular STAT-6-IP was monitored by western blot analysis of cell lysates harvested at different time points and resolved by SDS-PAGE. The STAT-6-IP was visualized using anti-phosphoSTAT-6 antibody and data normalized to 100% (Table 2).
To monitor peptide uptake, splenocytes in Dulbecco's Modified Eagle Medium (DMEM)/10% fetal bovine serum (FBS) were incubated continuously with FITC-conjugated PTD4 peptide (100 μM) for 30 minutes to 24 hours. […] Ten thousand cells were subsequently analyzed by flow cytometry. […] Splenocytes were returned to DMEM/10% FBS and intracellular localization of peptide monitored over time by flow cytometry.

[3] = Stability of intracellular STAT-6-IP in splenocytes (western blot, anti-phosphoSTAT-6 antibody); assay type: cell-based, murine; settings: mouse, murine splenocytes (intracellular peptide after loading); 4 hours loading at 100 μM, washed, trypsinized
Description: as §1
(§2) To monitor stability of the STAT-6-IP in murine splenocytes, cells in DMEM/10% FBS were incubated with the STAT-6-IP (100 μM) for four hours, after which they were washed twice with PBS and trypsinized. Splenocytes were then incubated with soybean trypsin inhibitor (0.5 mg/mL in 10 mM sodium tetraborate) for 5 minutes. The cells were washed again once in PBS and subsequently placed back into complete medium. At different time points, cells were harvested and lysed in tricine sample buffer (100 mM Tris-HCl, pH 6.8, 24% glycerol, 8% SDS, 200 mM DTT). Lysates were clarified and equal concentrations (20 μg/lane) resolved by SDS-PAGE on 18% tris-tricine gels, after which proteins were transferred to PVDF membrane. For western immunoblot analysis, membranes were blocked for one hour in TBST (10 mM Tris-Cl pH 7.4, 2.5 mM EDTA, 150 mM NaCl, 0.1% TWEEN™-20) containing 0.25% gelatin (bloom 275) at room temperature. Blots were incubated with anti-phosphoSTAT-6 antibodies overnight at 4° C. followed by horseradish peroxidase-conjugated bovine anti-rabbit secondary antibody for one hour. Immunoreactive bands were detected by enhanced chemiluminescence, ECLT™ (Amersham Life Sciences, San Francisco, Calif.), visualized and quantified on a FLUORCHEM™ 8000 Imaging System using ALPHAEASE™ software (Alpha Innotech, San Leandro, Calif.).

[4] = system: murine splenocytes; experiment: as above; assay type: cell-based; settings: for Percent Maximum (±STD), intracellular STAT-6-IP: normalized to 100%
Description: as §1, §2

Compound | Percent Maximum (±SEM), peptide uptake ([1]; 0 hours) [%] | Percent Maximum (±SEM), peptide uptake ([1]; 0.5 hours) [%] | Percent Maximum (±SEM), peptide uptake ([1]; 1.0 hours) [%] | Percent Maximum (±SEM), peptide uptake ([1]; 2.0 hours) [%] | Percent Maximum (±SEM), peptide uptake ([1]; 4.0 hours) [%] | Percent Maximum (±SEM), peptide uptake ([1]; 6.0 hours) [%] | Percent Maximum (±SEM), peptide uptake ([1]; 24.0 hours) [%] | Time after which peptide uptake plateaued ([1]; continuous incubation, 100 μM) [h] | Time of half-maximal peptide uptake ([1]; continuous incubation, 100 μM) [h] | Half-life of intracellular peptide [2] | half-life at 100 μM [3] [h] | Percent Maximum (±STD), intracellular STAT-6-IP ([4]; 0.5 hours after 4 hours loading at 100 μM) [%] | Percent Maximum (±STD), intracellular STAT-6-IP ([4]; 1.0 hours after 4 hours loading at 100 μM) [%] | Percent Maximum (±STD), intracellular STAT-6-IP ([4]; 4.0 hours after 4 hours loading at 100 μM) [%] | Time peptide remained in the cells ([4]; 4 hours loading at 100 μM, washed, trypsinized) | Percent Maximum (±STD), intracellular STAT-6-IP ([4]; 6.0 hours after 4 hours loading at 100 μM) [%] | Percent Maximum (±STD), intracellular STAT-6-IP ([4]; 8.0 hours after 4 hours loading at 100 μM) [%] | Percent Maximum (±STD), intracellular STAT-6-IP ([4]; 24.0 hours after 4 hours loading at 100 μM) [%]
FITC-PTD4: FITC-conjugated PTD4 protein transduction domain peptide (PTD4: Tyr-Ala-Arg-Ala-Ala-Ala-Arg-Gln-Ala-Arg-Ala; SEQ ID NO:6) (YARAAARQARA; not fully specified (N-terminus); printed as Tyr-Ala-Arg-Ala-Ala-Ala-Arg-Gln-Ala-Arg-Ala; also: FITC label, position not given here) | 4.16 ± 0.53 | 31.2 ± 4.35 | 46.57 ± 6.63 | 69.70 ± 8.60 | 72.86 ± 8.51 | 76.71 ± 7.58 | 78.49 ± 14.11 | 4 to 6 | 1 | approximately four | – | – | – | – | – | – | – | –
CC(C)[C@H](NC(=O)[C@H](Cc1ccc(OP(=O)(O)O)cc1)NC(=O)CNC(=O)[C@H](CCCNC(=N)N)NC(=O)CNC(=O)[C@H](C)NC(=O)[C@H](CCCNC(=N)N)NC(=O)[C@H](C)NC(=O)[C@H](CCC(N)=O)NC(=O)[C@H](CCCNC(=N)N)NC(=O)[C@H](C)NC(=O)[C@H](C)NC(=O)[C@H](C)NC(=O)[C@H](CCCNC(=N)N)NC(=O)[C@H](C)NC(=O)[C@@H](N)Cc1ccc(O)cc1)C(=O)N[C@@H](CO)C(=O)N[C@H](C(=O)N[C@H](C(=O)O)[C@@H](C)O)[C@@H](C)O [STAT-6-IP, Tyr-Ala-Arg-Ala-Ala-Ala-Arg-Gln-Ala-Arg-Ala-Gly-Arg-Gly-Tyr*-Val-Ser-Thr-Thr] (H-YARAAARQARAGRG[pY]VSTT-OH; N-terminus and C-terminus assumed) | – | – | – | – | – | – | – | – | – | – | ~8 | 100.00 ± 0.00 | 93.69 ± 17.14 | 68.33 ± 17.42 | up to 24 hours | 66.56 ± 15.04 | 46.47 ± 15.98 | 38.50 ± 51.74
